Molecular target: T1, Recombinant GST-IRTKS (mouse, UniProt Q9DBJ3 1-514)
T1 construct: IRTKS, cloned from a murine bone marrow library, subcloned into pGEX-6p-1; also called recombinant IRTKS; source: E. coli (pGEX-6p-1), recombinant
T1 sequence (looked up): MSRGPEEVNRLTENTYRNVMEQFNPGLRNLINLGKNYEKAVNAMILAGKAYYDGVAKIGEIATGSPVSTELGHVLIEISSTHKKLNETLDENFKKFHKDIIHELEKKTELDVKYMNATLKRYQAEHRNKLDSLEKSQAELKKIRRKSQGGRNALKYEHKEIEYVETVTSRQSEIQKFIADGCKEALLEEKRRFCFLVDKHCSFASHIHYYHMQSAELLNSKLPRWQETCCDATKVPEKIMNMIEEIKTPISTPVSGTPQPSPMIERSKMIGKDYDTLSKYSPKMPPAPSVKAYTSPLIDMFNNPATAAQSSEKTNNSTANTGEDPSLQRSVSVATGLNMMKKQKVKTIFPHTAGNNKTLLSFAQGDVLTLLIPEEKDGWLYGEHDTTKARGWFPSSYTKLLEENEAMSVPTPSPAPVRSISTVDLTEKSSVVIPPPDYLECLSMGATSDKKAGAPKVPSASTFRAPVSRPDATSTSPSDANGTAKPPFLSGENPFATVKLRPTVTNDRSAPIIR
Experiment: pull-down; GST pull-down: recombinant GST-tagged IRTKS or its truncations incubated with the recombinant partner
Details: both partners purified

binding result: binds
B1: Recombinant PCBP2 (natural protein, mouse, UniProt Q61990 1-362, looked up)
chain: MDTGVIEGGLNVTLTIRLLMHGKEVGSIIGKKGESVKKMREESGARINISEGNCPERIITLAGPTNAIFKAFAMIIDKLEEDISSSMTNSTAASRPPVTLRLVVPASQCGSLIGKGGCKIKEIRESTGAQVQVAGDMLPNSTERAITIAGIPQSIIECVKQICVVMLESPPKGVTIPYRPKPSSSPVIFAGGQDRYSTGSDSASFPHTTPSMCLNPDLEGPPLEAYTIQGQYAIPQPDLTKLHQLAMQQSHFPMTHGNTGFSGIESSSPEVKGYWAGLDASAQTTSHELTIPNDLIGCIIGRQGAKINEIRQMSGAQIKIANPVEGSTDRQVTITGSAASISLAQYLINVRLSSETGGMGSS
notes: PCBP2, cloned from a murine bone marrow library; source: recombinant (E. coli constructs in pGEX-6p-1 and pET-28a are described)

Source: paper PMC4569712, “IRTKS negatively regulates antiviral immunity through PCBP2 sumoylation-mediated MAVS degradation” (Nature Communications, 2015)
